Data: patent US20070231258A1, “Peptide conjugates” (KARYON CTT LTD., priority 2006, published 2007)
*1 amine or outer side, *2 acyl side, *3 side chain or, on linkers, in order; H or OH if unused. Where a SMILES comes first, the peptide text is derived from it. Bridges are numbered along the chain shown (N, C = ends). Primed or numbered codes have the meaning given here. [ ]: non-standard residue; d: D form. The star is where a group is joined. X1 = O=C(O)CN(CCN(CC(=O)O)CC(Cc1ccc(NC(=S)NCCOCCOCCN*)cc1)N(CC(=O)O)CC(=O)O)CC(=O)O; DTPA′ = diethylenetriaminepentaacetic acid chelator; NHCH2CH2SCH2CO = O=C(CSCCN[*:1])[*:2]; NH(CH2CH2O)2CH2CH2NH2 = NCCOCCOCCN*; AEEEA = NCCOCCOCCOCC(=O)O; PEG3 = NCCOCCOCCOCCC(=O)O; AABz = not defined here

Columns and labels:
C8161 tumors = experiment: Targeting peptide biodistribution (Eu content of tissues) in C8161 tumor-bearing mice; assay type: in vivo, athymic nude mice; details: 4 nmol i.v. tail vein, 20 min circulation; for accumulation of europium in tumor compared to normal tissue: kidney high due to excretion; for ratio of tumor Eu-content to muscle Eu-content: perfused
Method: It is shown that the tested conjugates according to the present invention selectively target to primary tumors in vivo but not to normal tissues or organs.
For production of experimental tumors 1×10^6 cells of C8161 line (described in Example 9) were injected subcutaneously into the flank of athymic nude mice strain (Harlan Laboratories). Tumors were harvested when they had reached a weight of about 0.1 g. Tumor-bearing mice were anesthetized by 0.02 ml/g body weight of Avertin [10 g 2,2,2-tribromoethanol (Fluka) in 10 ml 2-methyl-2-butanol (Sigma Aldrich)] intraperitoneally (i.p.).
To determine the biodistribution pattern of the conjugates, 4 nmol of MJ015 or MJ053 was injected into the tail vein of athymic nude mice in a volume of 100 μl in physiological saline solution (Baxter). The conjugate was allowed to circulate for 20 min. Mice were then perfused through the heart with 60 ml of physiological saline. Organs and tissues, including tumors were collected and weighed.
For determination of the Eu content of the tumors and control organs, 0.1-0.2 g of tissue was transferred into lysis buffer (20 mM Tris-HCl, 150 mM NaCl, 1% Nonident P40, pH 7.5) and homogenized. Eu-content was analyzed from tissue lysates prepared into the DELFIA Inducer solution (Perkin Elmer Wallac Ltd., Turku, Finland) and transferred to DELFIA Micro titration strip plates (Perkin Elmer Wallac Ltd, Turku, Finland). Time-resolved fluorescence was measured after incubation with a Wallac 1420 VICTOR3™ V plate reader using a D615 nm filter.

[1] = Plasma protein binding and plasma stability assay in vitro (ultrafiltration, LC/MS/MS); assay type: in vitro ADME, mouse
Method: The plasma protein binding and plasma stability of the targeting agents MJ143 (lactam-bridged; described in Example 8) and MJ142 (cystine-bridged; described below) comprising functional peptide LRSGRG was compared in mouse plasma in vitro.
The study compounds were spiked to mouse plasma to give 10 μM concentration. The samples of 1.5 ml were incubated at 37° C. and 200 μl aliquots were taken after 0 min, 30 min, 60 min, 2 h and 4 h. Incubations were made in duplicate. The aliquot samples were ultrafiltrated for 30 min (Millipore YM-10 filters, 10 kDa cut-off, 12 000 rpm) and the supernatants were analysed using LC/MS/MS. The sample concentrations were quantified against calibration curves created using standard samples spiked to ultrafiltrated mouse plasma to concentrations 0.1, 0.5, 1, 5 and 10 μM.
A Finnigan Surveyor chromatographic system (Thermo-Finnigan, San Jose, Calif., USA) with autosampler, vacuum degasser and column oven was used in the analysis. The analytical column was a Waters SymmetryShield RP18, 2.1×50 mm, 3.5 μm together with Phenomenex Luna C18 precolumn, 4.0×2.0 mm, 3.0 μm (Phenomenex, Torrance, Calif., USA). The eluents were (A) 0.02% acetic acid in water (pH 3.6) and (B) methanol, with flow rate of 300 μl/min. The elution gradient was from 5% B to 90% B in five minutes, followed by column equilibration. The column oven temperature was 30° C. LC/MS/MS data was acquired with a Finnigan TSQ Discovery MAX triple quadrupole mass spectrometer equipped with an Ion MAX electrospray ionization source. Before LC/MS/MS runs, the instrument was tuned with a 5 μg/ml solution of study compounds to obtain the maximum sensitivity with multiple reaction mode. The collision gas was argon at 1.5 mTorr.

in vitro = details: human, plasma
Method: (§1) The peptide conjugates (10-20 μg) was added to a human blood plasma/PBS mixture (1:1) in a total volume of 500 μl and incubated at 37° C. After incubation 100 μl per time point (0 and 240 min) was transferred to YM-10 (Microcon, cut-off 10000 MW; manufacturer Millipore), centrifuged (10000 RPM) 15 min at 4° C. 50 μl of the spin-through material was analyzed by HPLC.
(§2) HPLC: Waters 626 pump, 600S controller, Waters 996 photo diode array detector. Column: C18, 300 Å, 5 μm, 2.1×250 mm. Eluents for the non-conjugated functional peptides: A 0.1% TFA, B 0.075% TFA/100% ACN. Gradient: 0-100% B in 60 min. Flow: 180 μl/min. Loop: 50 μl.
(§3) Eluents for the functional peptide conjugates: Eluent A: 0.05 M ammonium acetate; B: 50% 0.05 M ammonium acetate/50% ACN. Gradient: 0-100% B in 60 min. Flow: 180 μl/min. Loop: 50 μl. One-minute fractions were collected and analyzed with MALDI-TOF.
(§4) Peptide mass: Bruker Ultraflex MALDI-TOF, N2-laser 337 nm, matrix saturated solution of α-cyano-4-hydroxycinnamic acid, reflector mode.

[2] = Plasma stability of the peptide conjugates in human blood plasma/PBS (HPLC)
Method: as §1, §2, §3, §4

a*LRSGRGE*-Teg-AEM-AABz-DTPA-Eu (LRSGRGE-{AEEEA-NHCH2CH2SCH2CO-AABz-DTPA′}; lactam N-7; not fully specified (N-terminus); reading uncertain; also: DTPA chelate of Eu) [MJ015]
accumulation of europium in tumor compared to normal tissue (C8161 tumors): accumulated strongly and selectively in C8161 tumors | ratio of tumor Eu-content to muscle Eu-content (C8161 tumors): 7.1

CC(=O)N[C@H]1CSSC[C@@H](C(=O)NCC(=O)N[C@@H](C)C(=O)NCCOCCOCCNC(=S)Nc2ccc(CC(CN(CCN(CC(=O)O)CC(=O)O)CC(=O)O)N(CC(=O)O)CC(=O)O)cc2)NC(=O)CNC(=O)[C@H](CCCNC(=N)N)NC(=O)CNC(=O)[C@H](CO)NC(=O)[C@H](CCCNC(=N)N)NC(=O)[C@H](CC(C)C)NC1=O (stereo partly shown) [MJ142, reference compound] (Ac-CLRSGRGCGA-X1; disulfide 1-8)
fraction unbound at 0 h, 10 μM ([1]; 0 h, mouse plasma, 10 μM, 37° C., ultrafiltrate, read-out: Peptide-DTPA[In] relative remaining peak areas/unbound fraction (%)): 0.48 | fraction unbound at 30 min, 10 μM ([1]; 30 min, mouse plasma, 10 μM, 37° C., ultrafiltrate, read-out: Peptide-DTPA[In] relative remaining peak areas/unbound fraction (%)): 0.44 | fraction unbound at 1 h, 10 μM ([1]; 1 h, mouse plasma, 10 μM, 37° C., ultrafiltrate, read-out: Peptide-DTPA[In] relative remaining peak areas/unbound fraction (%)): 0.35 | fraction unbound at 2 h, 10 μM ([1]; 2 h, mouse plasma, 10 μM, 37° C., ultrafiltrate, read-out: Peptide-DTPA[In] relative remaining peak areas/unbound fraction (%)): 0.19 | fraction unbound at 4 h, 10 μM ([1]; 4 h, mouse plasma, 10 μM, 37° C., ultrafiltrate, read-out: Peptide-DTPA[In] relative remaining peak areas/unbound fraction (%)): 0.06 | fraction unbound at 0 min, 10 μM ([1]; mouse plasma, 0 min incubation, during the 30 min ultrafiltration period, read-out: disappearance due to protein binding (converted)): ~0.48

CC(C)C[C@@H]1NC(=O)[C@@H](NC(=O)CN)CSSC[C@@H](C(=O)NCC(=O)NCCOCCOCCN)NC(=O)CNC(=O)[C@H](CCCNC(=N)N)NC(=O)CNC(=O)[C@H](CO)NC(=O)[C@H](CCCNC(=N)N)NC1=O [KK12, Gly-Cys*-Leu-Arg-SerGly-Arg-Gly-Cys*-Gly-NH(CH2CH2O)2CH2CH2NH2, reference compound] (H-GCLRSGRGCG-{NH(CH2CH2O)2CH2CH2NH2}; disulfide 2-9; N-terminus assumed)
remaining at 4 h (in vitro): 25%

a*LRSGRGE*-Teg-AEM-AABz-DTPA-Gd (LRSGRGE-{AEEEA-NHCH2CH2SCH2CO-AABz-DTPA′}; lactam N-7; not fully specified (N-terminus); reading uncertain; also: DTPA chelate of Gd) [MJ059]
Observed compound peak heights prior to incubation ([2]; 0 h, human blood plasma/PBS 1:1, 37° C.): 100% | Observed compound peak heights after four hours ([2]; 4 h, human blood plasma/PBS 1:1, 37° C.): 100% | degradation during incubation in plasma ([2]; 4 h incubation in human plasma): no degradation

CC(C)C[C@@H]1NC(=O)[C@@H](C)NC(=O)CC[C@@H](C(=O)NCCOCCOCCN)NC(=O)CNC(=O)[C@H](CCCNC(=N)N)NC(=O)CNC(=O)[C@H](CO)NC(=O)[C@H](CCCNC(=N)N)NC1=O [KK51, D-Ala*-Leu-Arg-SerGly-Arg-Gly-Glu*-NH(CH2CH2O)2CH2CH2NH2] ([dA]LRSGRGE-{NH(CH2CH2O)2CH2CH2NH2}; lactam N-8)
remaining at 4 h (in vitro): 92%

a*LRSGRGE*-Tegc-AEM-AABz-DTPA-In (LRSGRGE-{PEG3-NHCH2CH2SCH2CO-AABz-DTPA′}; lactam N-7; not fully specified (N-terminus); reading uncertain; also: In chelated by DTPA) [MJ143]
Peptide-DTPA[In] relative remaining peak areas/unbound fraction (%) ([1]; 0 h, mouse plasma, 10 μM, 37° C., ultrafiltrate): 71% | Peptide-DTPA[In] relative remaining peak areas/unbound fraction (%) ([1]; 30 min, mouse plasma, 10 μM, 37° C., ultrafiltrate): 71% | Peptide-DTPA[In] relative remaining peak areas/unbound fraction (%) ([1]; 1 h, mouse plasma, 10 μM, 37° C., ultrafiltrate): 70% | Peptide-DTPA[In] relative remaining peak areas/unbound fraction (%) ([1]; 2 h, mouse plasma, 10 μM, 37° C., ultrafiltrate): 66% | Peptide-DTPA[In] relative remaining peak areas/unbound fraction (%) ([1]; 4 h, mouse plasma, 10 μM, 37° C., ultrafiltrate): 61% | plasma protein binding, lactam-bridged vs cystine-bridged version ([1]; mouse plasma in vitro): considerably lower plasma protein binding | plasma stability, lactam-bridged vs cystine-bridged version ([1]; mouse plasma in vitro): greatly more stable

a*IREE*-Tegc-AEM-AABz-DTPA-Eu [MJ053]
accumulation of europium in tumor compared to normal tissue (C8161 tumors): accumulated strongly and selectively in C8161 tumors | ratio of tumor Eu-content to muscle Eu-content (C8161 tumors): 3.9
